B1: Tumor protein p73 (Homo sapiens), O15350-1 (parent)
chain: MAQSTATSPDGGTTFEHLWSSLEPDSTYFDLPQSSRGNNEVVGGTDSSMDVFHLEGMTTSVMAQFNLLSSTMDQMSSRAASASPYTPEHAASVPTHSPYAQPSSTFDTMSPAPVIPSNTDYPGPHHFEVTFQQSSTAKSATWTYSPLLKKLYCQIAKTCPIQIKVSTPPPPGTAIRAMPVYKKAEHVTDVVKRCPNHELGRDFNEGQSAPASHLIRVEGNNLSQYVDDPVTGRQSVVVPYEPPQVGTEFTTILYNFMCNSSCVGGMNRRPILIIITLEMRDGQVLGRRSFEGRICACPGRDRKADEDHYREQQALNESSAKNGAASKRAFKQSPPAVPALGAGVKKRRHGDEDTYYLQVRGRENFEILMKLKESLELMELVPQPLVDSYRQQQQLLQRPSHLQPPSYGPVLSPMNKVHGGMNKLPSVNQLVGQPPPHSSAATPNLGPVGPGMLNNHGHAVPANGEMSSSHSAQSMVSGSHCTPPPPYHADPSLVSFLTGLGCPNCIEYFTSQGLQSIYHLQNLTIEDLGALKIPEQYRMTIWRGLQDLKQGHDYSTAQQLLRSSNAATISIGGSGELQRQRVMEAVHFRVRHTITIPNRGGPGGGPDEWADFGFDLPDCKARKQPIKEEFTEAEIH

The variants in the experiment derive from B1. The note with it: with itch_human ITCH.
For Y487F, the “effect of a mutation on the interaction” value is given as “disrupting interaction”.

For the origin of these results see IntAct's records for PubMed 15678106.
